Patent US20110144312A1 (Kyowa Kirin, published 2011)

T1: Biotin-SGSTYSIFSHFREYEIAIRKV-NH2 (human, N-terminal biotin, C-terminal amide (-NH2))
T1 peptide: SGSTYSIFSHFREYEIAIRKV

T2: Biotin-SGSTLDLYHSNGYRARVRAVDG-NH2 (human, N-terminal biotin, C-terminal amide (-NH2))
T2 peptide: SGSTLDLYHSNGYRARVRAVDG


Assays:
[1] = target: T3, SNP variant V113I of human IL-10Rα extracellular domain fused to the Fc portion of human IgG1 (human); experiment: ELISA with SNP variant Fc fusion
T3 construct: The entry already holds the change and includes the signal peptide; also called V1131

[2] = target: T1, Biotin-SGSTYSIFSHFREYEIAIRKV-NH2; experiment: ELISA, biotinylated peptide on Extravidin or Neutravidin plates
Method: (§1) Multiple ELISA methods were also employed to detect binding of anti-IL-10Rα antibodies to IL-10Rα, derived peptides. The biotinylated IL-10Rα derived peptides (SEQ ID NO. 86-87) were diluted to 1 μg/ml in TBS/BSA/0.05% Tween 20 and added to Extravidin or Neutravidin pre-coated ELISA plates (Pierce) for 2 hours at room temperature. After washing three times with TBS/BSA/0.05% Tween 20. The purified anti-human IL-10Rα antibodies were diluted in TBS/BSA/0.05% Tween 20 and added to the wells. The plates were incubated for 1 hour at room temperature. The plates were washed 3 times with TBS/0.05% Tween 20 and peroxidase-conjugated goat anti-human IgG (Fcγ specific), anti-rat IgG, or anti-mouse IgG detection antibodies (Jackson Immunoresearch) were added. Following 1 hour incubation at room temperature, the plates were washed and the TMB (Sigma) substrate was added and incubated at room temperature for 5 to 10 minutes. The reaction was stopped with H₂SO₄ (LabChem) and the optical density was measured at 450 nm using a microplate reader. An OD reading above background wells with no primary antibody is indicative of antibody binding to the peptides. […] The antibodies only bound the positive control biotinylated recombinant human IL-10Rα:hFc protein. […] Antibody binding was detected with species-specific anti-IgG-HRP secondary antibodies. […]

[3] = target: T2, Biotin-SGSTLDLYHSNGYRARVRAVDG-NH2; experiment: as above
Method: as §1

[4] = target: T4, SNP variant R212E of human IL-10Rα extracellular domain fused to the Fc portion of human IgG1 (human); experiment: ELISA, coated SNP variant Fc fusion R212E [E]
T4 construct: The entry already holds the change and includes the signal peptide

[5] = target: T5, SNP variant S159G of human IL-10Rα extracellular domain fused to the Fc portion of human IgG1 (human); experiment: ELISA, coated SNP variant Fc fusion S159G [D]
T5 construct: The entry already holds the change and includes the signal peptide

T3 sequence (chain, as listed by the source V113I V113I limits assumed): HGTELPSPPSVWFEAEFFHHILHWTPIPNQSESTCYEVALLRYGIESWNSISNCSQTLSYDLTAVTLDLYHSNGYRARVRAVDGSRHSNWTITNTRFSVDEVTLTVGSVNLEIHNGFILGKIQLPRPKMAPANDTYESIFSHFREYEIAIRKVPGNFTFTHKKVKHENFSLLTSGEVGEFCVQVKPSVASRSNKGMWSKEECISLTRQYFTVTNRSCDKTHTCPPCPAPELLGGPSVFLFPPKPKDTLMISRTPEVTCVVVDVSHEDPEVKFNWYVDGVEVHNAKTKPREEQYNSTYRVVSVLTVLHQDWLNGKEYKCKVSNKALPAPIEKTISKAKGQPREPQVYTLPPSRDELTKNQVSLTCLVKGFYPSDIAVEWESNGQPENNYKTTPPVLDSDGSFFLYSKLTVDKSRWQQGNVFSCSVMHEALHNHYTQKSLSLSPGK
T4 sequence (chain, as listed by the source R212E R212E limits assumed): as the sequence (chain, as listed by the source V113I V113I limits assumed) above, with I92V, R191E counted along it

| binding result [1] | binding result [2] | binding result [3] | binding result [4] | binding result [5] | Binder |
| --- | --- | --- | --- | --- | --- |
| binds | no binding (tested: 1 µg/ml peptide) | no binding (tested: 1 µg/ml peptide) | – | – | 136C5 (antibody, V domains shown, Hybridoma antibody, human IgG1, kappa light chain; also called human anti-human IL-10Rα monoclonal antibody 136C5; hybridoma deposit PTA-9131) VH: EVQLVESGGGLVQPGGSLRLSCAASGFTFSSYSMNWVRQAPGKGLEWVSYISTGSSTIYYADSVKGRFTISRDNAKNSLYLQMNSLRDEDTAVYYCARENYYGSGSYEDYFDYWGQGTLVTVSS VL: EIVLTQSPATLSLSPGERATLSCRASQSVSSYLAWYQQKPGQAPRLLIYDASNRATGIPARFSGSGSGTDFTLTISSLEPEDFAVYYCQQRSNWPIFTFGPGTKVDIK |
| – | – | – | binds | binds | 136C8 (antibody, V domains shown, Hybridoma antibody, human IgG2, kappa light chain; also called human anti-human IL-10Rα monoclonal antibody 136C8; hybridoma deposit PTA-9132) VH: EVQLVESGGGLVQPGGSLRLSCAASGFTFSSYSMNWVRQAPGKGLEWVSYISTRSSTIYYADSVKGRFTISRDNAKNSLYLQMNSLRDEDTAVYYCARENYYGSGSYEDYFDYWGQGTLVTVSS VL: EIVLTQSPATLSLSPGERATLSCRASQSVSSYLAWYQQKPGQAPRLLIYDASNRATGIPARFSGSGSGTDFTLTISSLEPEDFAVYYCQQRSNWPIFTFGPGTKVDIK |
